Source: patent publication US12447201B2, “Immunogenic compounds for cancer therapy” (priority 2016, dated 2025)

How the values were obtained:
HLA-A*0201 = target: T1, HLA-A*0201 (Homo sapiens, UniProt P04439, D140Y/D185E/D98H/E176V/E277Q/G131W/G231S/I119V/I121R/I166T/I218V/L300P/L318F/N151K/N90K/P208A/P217A/Q86G/Q94H/R138H/R169H/T345S); assay: Affinity of the peptide to HLA-A*0201 measured on T2 cell line (FACS, anti-HLA-A2 labelling); type: binding; conditions: for binding to HLA-A*0201 / affinity to HLA-A*0201 compared with the peptide 1A9V: Example 3, FIG. 4, T2 cells; for peptide concentration inducing 20% of expression of the HLA-A*0201: T2 cells
T1 construct: human tumoral cell T2 which expresses the HLA-A*0201 molecule, but which is TAP1/2 negative; endogenous in cells; host or cells: T2 cells (human, TAP1/2 negative)
From the text: The experimental protocol is similar to the one that was validated for peptides presented by the HLA-A*0201 (Tourdot et al., A general strategy to enhance immunogenicity of low-affinity HLA-A2.1-associated peptides: implication in the identification of cryptic tumor epitopes. Eur J Immunol. 2000 December; 30 (12): 3411-21). Affinity measurement of the peptides is achieved with the human tumoral cell T2 which expresses the HLA-A*0201 molecule, but which is TAP1/2 negative and incapable of presenting endogenous peptides.
(§1) T2 cells (2.10^5 cells per well) are incubated with decreasing concentrations of peptides from 100 μM to 0.1 μM in a AIMV medium supplemented with 100 ng/μl of human β2m at 37° C. for 16 hours. Cells are then washed two times and marked with the anti-HLA-A2 antibody coupled to PE (clone BB7.2, BD Pharmagen).
The analysis is achieved by FACS (Guava Easy Cyte).
(§2) For each peptide concentration, the geometric mean of the labelling associated with the peptide of interest is substracted from background noise and reported as a percentage of the geometric mean of the […] labelling obtained for the reference peptide HIV pol 589-597 at a concentration of 100 μM. The relative affinity is then determined as follows: relative affinity=concentration of each peptide inducing 20% of expression of HLA-A*0201/concentration of the reference peptide inducing 20% of expression of HLA-A*0201. A2. Solubilisation of Peptides
The experimental protocol was similar to the one that was validated for peptides presented by the HLA-A*0201 (Tourdot et al., A general strategy to enhance immunogenicity of low-affinity HLA-A2.1-associated peptides: implication in the identification of cryptic tumor epitopes. Eur J Immunol. 2000 December; 30 (12): 3411-21).
as §1, with “were” for “are”
The analysis was achieved by FACS (Guava Easy Cyte).
as §2, with “was subtracted” for “is substracted”
The experimental protocol, materials and methods correspond to those outlined in Example 3, with the only difference that the above mentioned antigenic peptides were used.

β/A2/DR3 mice = assay: ELISPOT-IFNγ assay on splenocytes of vaccinated β/A2/DR3 mice; type: in vivo, mouse; conditions: as compared to IL13RA2-H-vaccinated animals (group 2)

| affinity to HLA-A*0201 compared with the peptide 1A9V (HLA-A*0201) | peptide concentration inducing 20% of expression of the HLA-A*0201 (HLA-A*0201) | Sequence | binding to HLA-A*0201 (HLA-A*0201) | T cell responses in the ELISPOT-IFNγ assay after vaccination (β/A2/DR3 mice) |
| --- | --- | --- | --- | --- |
| – | – | CLYTFLIST [IL13RA2-H2, reference compound] | do not bind to or show much lower affinity | – |
| higher affinity | 4.4 µM | FLPFGFILV [IL13RA2-B] | bind strongly | improved T cell responses |
| – | 100 UM | WLPFGFILI [IL13RA2-H, reference compound] | do not bind to or show much lower affinity | – |
| higher affinity | – | YLYTFLIST [IL13RA2-B2] | bind strongly | – |
